Among the data in ChEMBL document CHEMBL1139472, “Synthesis of N-{4-[(2,4-diamino-5-methyl-4,7-dihydro-3H-pyrrolo[2,3-d]pyrimidin-6-yl)thio]benzoyl}-L-glutamic acid and N-{4-[(2-amino-4-oxo-5-methyl-4,7-dihydro-3H-pyrrolo[2,3-d]pyrimidin-6-yl)thio]benzoyl}-L-glutamic acid as dual inhibitors of dihydrofolate reductase and thymidylate synthase and …” (J Med Chem, 2005) are Km and Vmax values, retold here.

Substrate in data set [1]: Cc1c(Sc2ccc(C(=O)N[C@@H](CCC(=O)O)C(=O)O)cc2)[nH]c2nc(N)[nH]c(=O)c12
Description: Activity of human recombinant cytosolic FPGS.

Substrate in data set [2]: Cc1c(Sc2ccc(C(=O)N[C@@H](CCC(=O)O)C(=O)O)cc2)[nH]c2nc(N)[nH]c(=O)c12
Briefly: (§1) Activity of human recombinant cytosolic FPGS relative to aminopterin.

Substrate in data set [3]: Nc1nc(N)c2nc(CNc3ccc(C(=O)N[C@@H](CCC(=O)O)C(=O)O)cc3)cnc2n1
The data set is described as §1.

B1: Folylpolyglutamate synthase, mitochondrial (Homo sapiens), Q05932 (protein)
chain: MSRARSHLRAALFLAAASARGITTQVAARRGLSAWPVPQEPSMEYQDAVRMLNTLQTNAGYLEQVKRQRGDPQTQLEAMELYLARSGLQVEDLDRLNIIHVTGTKGKGSTCAFTECILRSYGLKTGFFSSPHLVQVRERIRINGQPISPELFTKYFWRLYHRLEETKDGSCVSMPPYFRFLTLMAFHVFLQEKVDLAVVEVGIGGAYDCTNIIRKPVVCGVSSLGIDHTSLLGDTVEKIAWQKGGIFKQGVPAFTVLQPEGPLAVLRDRAQQISCPLYLCPMLEALEEGGPPLTLGLEGEHQRSNAALALQLAHCWLQRQDRHGAGEPKASRPGLLWQLPLAPVFQPTSHMRLGLRNTEWPGRTQVLRRGPLTWYLDGAHTASSAQACVRWFRQALQGRERPSGGPEVRVLLFNATGDRDPAALLKLLQPCQFDYAVFCPNLTEVSSTGNADQQNFTVTLDQVLLRCLEHQQHWNHLDEEQASPDLWSAPSPEPGGSASLLLAPHPPHTCSASSLVFSCISHALQWISQGRDPIFQPPSPPKGLLTHPVAHSGASILREAAAIHVLVTGSLHLVGGVLKLLEPALSQ
Usually Km stands for the substrate concentration at which the rate is half of its maximum. As to B1, the Km in data set [1] is 5.1 µM. The Vmax was found to be 0.29 in data set [2] and 1 in data set [3].
